In patent US20210403552A1 (SHANGHAI GENBASE BIOTECHNOLOGY, published 2021):
Positions count from the first letter of the chain named.

T1: mouse CLDN18.2 (mouse, UniProt P56857 10-264)
T1 construct: over-expressed on HEK293T cells by lentivirus; also called mCLDN18.2; murine CLDN18.2
T1 chain: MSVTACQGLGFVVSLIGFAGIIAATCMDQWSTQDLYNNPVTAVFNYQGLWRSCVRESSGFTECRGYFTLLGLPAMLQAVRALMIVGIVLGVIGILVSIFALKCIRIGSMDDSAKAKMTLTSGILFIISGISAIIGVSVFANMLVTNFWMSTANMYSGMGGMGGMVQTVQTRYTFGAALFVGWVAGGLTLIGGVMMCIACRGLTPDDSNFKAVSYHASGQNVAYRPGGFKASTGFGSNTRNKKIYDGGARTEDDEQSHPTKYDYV

B1: 5F9-chIgG1 (antibody, V domains shown)
VH: QVQLQQSGAELVKPGASVKLSCKASGYTFTSYWMHWVKQRPGQGLEWIGMIHPNSVSTNYNEKFKSKATLTVDKSSSTAYMQLSSLTSEDSAVYYCAVYFDYWGQGTTLTVSS
VL: DIQVTQSPSSLSASLGERVSLTCRASQDIGSSLNWLQQEPDGTIKRLIYASSSLNSGVPKRFSVSRSGSDYSLTISSLESEDFVDYYCLQYATSPPTFGGGTKLEIKR
notes: human-mouse chimeric antibody, human IgG1/kappa constant regions
B2: 9F3-chIgG1 (antibody, V domains shown)
VH: EVRLQQSGPELVKPGASVKIPCKASGYKFTDYNMDWVKQSHGKSLEWIGEINPNNGGTIYNQKFKGKATLTVDKSSSTAYMELRSLTSEDTAVYYCARIYYGNSFAYWGQGTLVTVSS
VL: DIVMTQSPSSLTVTAGEKVTMSCKSSQSLLNSGNLKNYLTWYQQKPGQPPKLLIYWASTRESGVPDRFTGSGSGTDFTLTISSVQAEDLAVYYCQNDYFYPLTFGAGTKLEIKR
notes: as for B1
B3: 10B11-chIgG1 (antibody, V domains shown)
VH: QVQMKESGAELVKPGASVKISCKASGYAFSTYWMDWVKQRPGKGLEWIGQIYPGNGDTNYNGKFKGKATLTADKSSSTADMQLSSLTSEDSAVYFCARLGYGNSFTYWGQGTLVTVSA
VL: B2 VL with V3Q, M4V, L35Q, S73F, D97A, L102F, A106S
notes: as for B1
B4: 44A8-chIgG1 (antibody, V domains shown)
VH: EVRLQQSGPELVKPGASVKMSCKASGYTFTDYNMHWVKQSHGKSLEWIGYINPKNGGIRYNQKFTGKATLTVNKSSSTAYMELRSLTSEDSAVYYCARGGYYGNTLDNWGQGTSVTVSS
VL: B2 VL with V13L, L35Q, R60S, V91I, D97A, L102W, A106G
notes: as for B1
B5: 27B5-chIgG1 (antibody, V domains shown)
VH: QVQLQQPGTELVKPGASVKLSCKASGYTFTSYWMHWVKQRPGQGLEWIGNIHPSNGGSNHNEKFKSKATLTVDKSSSTAYMQLSSLTSEDSAVYYCAPIYYGNSLAYWGHGTLVTVSA
VL: B2 VL with I2V, L35Q, I54L, D97S, L102F, A106S
notes: as for B1
B6: 37B1-chIgG1 (antibody, V domains shown)
VH: EVRLQQSGPELVKPGASVKMSCKASGYSFTDYNMHWVKQSHGKSPEWVGYINPNKGGTGYNQKFKGKATLTVNKSSSTANMELRSLTSEDSAVYYCARIWYGNSFAYWGQGTLVTVSA
VL: B2 VL with I2V, L35Q, Y93F, L102F, A106S
notes: as for B1
B7: 10B11 (antibody, V domains shown)
VH: B3 VH
VL: DIQVTQSPSSLTVTAGEKVTMSCKSSQSLLNSGNQKNYLTWYQQKPGQPPKLLIYWASTRESGVPDRFTGSGFGTDFTLTISSVQAEDLAVYYCQNAYFYPFTFGSGTKLEIK
notes: murine monoclonal antibody purified from hybridoma culture supernatant
B8: 27B5 (antibody, V domains shown)
VH: B5 VH
VL: B7 VL with I2V, Q3V, V4M, I54L, F73S, A97S
notes: as for B7
B9: 44F7 (antibody, V domains shown)
VH: QVQLQQSGAELVRPGASVKMSCKASGYTFTSYNMHWVKQAPRQGLEWIGTIYPGNGDTSYNQKFKGKATLTVDKSSSTAYMQLSSLTSEDSAVYFCARGGYYGNSLDYWGQGTTLTVSS
VL: B7 VL with V4M, F73S, F99Y
notes: as for B7
B10: 37B1 (antibody, V domains shown)
VH: B6 VH
VL: B7 VL with I2V, Q3V, V4M, F73S, Y93F, A97D
notes: as for B7
B11: 44A8 (antibody, V domains shown)
VH: B4 VH
VL: B7 VL with Q3V, V4M, V13L, R60S, F73S, V91I, F102W, S106G
notes: as for B7
B12: 2F12 (antibody, V domains shown)
VH: EVQLVESGGGLVKPGGSLKLSCAASGFTFSDYGIHWVRQAPEKGLEWVAYISSGSSTIYYADTVKGRFTISRDNAKNTLFLQMTSLRSEDTAIYYCAKWDRGNCFDYWGQGTTLTVSS
VL: DIVLTQSPSSLTVTAGEKVTMSCKSSQSLLNSGNQKKYLTWYQQKVGQPPKLLIYWASIRECGVPDRFTGSGSGTDFILTISSVQAEDLAVYYCQNAYSYPLTFGAGTKLELK
notes: as for B7
B13: 9F3 (antibody, V domains shown)
VH: B2 VH
VL: B7 VL with Q3V, V4M, Q35L, F73S, A97D, F102L, S106A
notes: as for B7
B14: 1D10-chIgG1 (antibody, V domains shown)
VH: B1 VH with S7P, H52Y, V56G, T58I, S66N, Y95F, A97S
VL: B1 VL with V4G, S51T, N55D, T93S

These binders were tested against T2, human CLDN18.2 (human) (assay: imaging cytometry (% fluorescent cells), HEK293T-hCLDN18.2 cells).
T2 construct: over-expressed on HEK293T or OCUM-1 cells by lentivirus; KATO-III and NUGC4 gastric cancer cells express it naturally; also called hCLDN18.2; hCLDNA18.2
Method: (§1) 10,000 cells were plated in 100 μL of DMEM containing 10% FBS per well in a flat-bottomed 96-well plate. After the cells adhered or were settled to the bottom of the wells overnight, the supernatant was removed on the next day. 3-Fold gradient dilution of antibody was performed by diluting 1/3 of the total volume (i.e., 100 μL) in 200 μL of DMEM. 100 μL of the diluted antibody (the supernatants of fused clones or subclones was used in the screening) was added to each well of the cell plate, 100 μL of DMEM was added to the corresponding negative control well, and incubation was carried out for 1 hour at room temperature. After removing the supernatant, 100 μL of secondary antibody (5 μg/mL, diluted in DMEM) was added to each well, and incubated at room temperature for 0.5 hours. The supernatant was removed after staining, followed by washing with PBS once. 100 μL of PBS was added to each well, and then reading was carried out on the cytometer.
A full-field scanning cytometer (Nexcelom, Celigo® Image Cytometer) was used to measure the readings of the experimental plate. During the measurement, high-speed scanning imaging of the cells in the well was simultaneously performed in the green fluorescent channel corresponding to the secondary antibody and in the bright field channel. The cells that bound the antibody were counted in the image obtained from the green fluorescent channel under the parameters set in accordance with the morphology and fluorescence intensity of the fluorescently labeled cells, and the adhered cells were counted in the image obtained from the bright field channel under the parameters set in accordance with the morphology of the cells. […] The data analysis was performed using GraphPad.

EC50 | Binder
0.283 µg/mL | B1
0.104 µg/mL | B2
0.03 µg/mL | B3
0.069 µg/mL | B4
0.108 µg/mL | B5
0.031 µg/mL | B6

Target: T1, mouse CLDN18.2
Test: imaging cytometry (% fluorescent cells), HEK293-mCLDN18.2 cells
From the text: (§2) HEK293T-hCLDN18.2 and OCUM-1-hCLDN18.2 expressing human CLDN18.2 (hCLDN18.2), or HEK293T-mCLDN18.2 expressing mouse CLDN18.2 (mCLDN18.2) and the corresponding negative control cell line HEK293T were used; or HEK293T-hCLDN18.1 and CHOS-hCLDN18.1 expressing human CLDN18.1 (hCLDN18.1) were used. DyLight488 goat anti-mouse IgG (Abcam, Catalog No. ab97015) or DyLight488 goat anti-human IgG (Abcam, Catalog No. ab97003) was used as secondary antibody. Binding curves were generated by using the following method.
as §1
(§3) A full-field scanning cytometer (Nexcelom, Celigo® Image Cytometer) was used to measure the readings of the experimental plate. During the measurement, high-speed scanning imaging of the cells in the well was simultaneously performed in the green fluorescent channel corresponding to the secondary antibody and in the bright field channel. The cells that bound the antibody were counted in the image obtained from the green fluorescent channel under the parameters set in accordance with the morphology and fluorescence intensity of the fluorescently labeled cells, and the adhered cells were counted in the image obtained from the bright field channel under the parameters set in accordance with the morphology of the cells.

EC50 | Binder
0.035 µg/mL | B7
0.033 µg/mL | B8
0.026 µg/mL | B9
0.032 µg/mL | B10
0.026 µg/mL | B11
0.036 µg/mL | B12
0.043 µg/mL | B13

These binders were tested against T2, human CLDN18.2 (assay: imaging cytometry (% fluorescent cells), OCUM1-hCLDN18.2 cells).
From the text: as §2, §1, §3

EC50 | Binder
0.135 µg/mL | B7
0.142 µg/mL | B8
0.092 µg/mL | B9
0.146 µg/mL | B10
0.097 µg/mL | B11
0.186 µg/mL | B12
0.15 µg/mL | B13

The binders below were run against T2, human CLDN18.2 (assay: cell-based or functional assay).

CDC EC50, HEK293T-hCLDN18.2 target cells, human serum | Binder
5.25 µg/mL | B1
1.86 µg/mL | B2
1.65 µg/mL | B3
2.4 µg/mL | B4
5.17 µg/mL | B5
1.93 µg/mL | B6

Target: T2, human CLDN18.2
Test: cell-based or functional assay
Remark: another data set of the same source

ADCC EC50, HEK293T-hCLDN18.2 target cells, human PBMC effectors | Binder
0.0197 µg/mL | B1
0.008 µg/mL | B2
0.001 µg/mL | B3
0.0156 µg/mL | B4
0.0249 µg/mL | B5
0.0126 µg/mL | B6

Each binder was assayed against T3, human CLDN18.1 (human, UniProt P56856 1-261) (assay: imaging cytometry, CHOS-hCLDN18.1 cells).
T3 construct: over-expressed on HEK293T or CHOS cells by lentivirus; also called hCLDN18.1
T3 sequence (P56856 whole entry): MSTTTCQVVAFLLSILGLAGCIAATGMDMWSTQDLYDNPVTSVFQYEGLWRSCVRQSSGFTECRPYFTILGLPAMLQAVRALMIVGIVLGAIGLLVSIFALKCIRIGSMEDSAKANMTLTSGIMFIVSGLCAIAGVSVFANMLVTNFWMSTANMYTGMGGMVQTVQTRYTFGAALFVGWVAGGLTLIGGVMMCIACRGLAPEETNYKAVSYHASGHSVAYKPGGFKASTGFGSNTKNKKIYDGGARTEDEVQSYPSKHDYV
From the text: as §2, §1, §3

binding result | Binder
no binding | B7
no binding | B8
no binding | B9
no binding | B10
no binding | B11
no binding | B12
no binding | B13

Target: T2, human CLDN18.2
Test: cell-based or functional assay
Remark: another data set of the same source

Internalization percentage (%), HEK293T-hCLDN18.2 cells, flow cytometry, 10 µg/mL antibody | Binder
9.3% | B1
28.7% | B14
2.5% | B4
-2.2% | B5
-3.2% | B6

The binders below were run against T2, human CLDN18.2 (assay: imaging cytometry (% fluorescent cells), HEK293-hCLDN18.2 cells).
From the text: as §2, §1, §3

EC50 | Binder
0.038 µg/mL | B7
0.041 µg/mL | B8
0.028 µg/mL | B9
0.04 µg/mL | B10
0.034 µg/mL | B11
0.041 µg/mL | B12
0.053 µg/mL | B13
